From US6699656B2, “Treatment and prevention of HIV infection by administration of derivatives of human chorionic gonadotropin” (University of Maryland Biotechnology Institute, priority 1996, dated 2004)

Legend:
[1] = tested on: HIV-1; conditions: p24 antigen days 3 to 10; peptides 0.05 to 50 nmoles/ml, hCG 0.01 to 1,000 IU, native β-hCG 100 to 1,000 μg
Experimental: Sequences of the peptides are as follows:
HIV-1 infected cells were treated with the above preparations and the virus was measured.

[2] = tested on: hematopoietic progenitor cells; assay: Hematopoietic progenitor colony assays (CFU-MIX, BFU-e, CFU-GM); type: cell-based; conditions: bone marrow and cord blood; hCG 200 IU/ml, peptides and subunits 100 μg/ml; 10 days
From the text: Hematopoietic progenitor cells (2×10^5 cell/ml) were isolated from normal bone marrow and cord blood and seeded in methylcellulose. […] Aggregates containing more than 50 cells after 10 days of culture were counted as colonies.

[3] = tested on: KS Y-1 or KS-SLK cells; assay: KS clonogenic assay; type: cell-based, human; conditions: 2 KS cell lines; peptides 50 nmoles/ml, CR127 2 nmoles/ml; 10 days
Experimental: Briefly, the KS Y-1 cells were obtained from mononuclear cells isolated from pleural effusion of an AIDS patient with KS involving the lungs. After the depletion of T lymphocytes, monocytes/macrophages and fibroblasts by the cytotoxicity method, using monoclonal antibodies against CD2, CD3, CD4, CD8, CD10 and CD14 membrane antigens and baby rabbit complement, the cells were cultured in the absence of exogenous growth factors to select for transformed cells.

[4] = tested on: Kaposi's Sarcoma; conditions: literature; cited from earlier work
[5] = tested on: HIV-1; conditions: higher doses increased viral production; cited from earlier work

Molecule | inhibition of HIV-1 infection/replication in acutely infected cells [1] | growth of hematopoietic progenitors (colonies) [2] | anti-KS effect in clonogenic assays (number of colonies) [3] | efficacy in the treatment of Kaposi's Sarcoma [4] | doses reducing HIV production in monocytes [5]
partially purified native β-hCG (NβhCG): partially purified native β-hCG dissociated from hCG, Sigma (protein, UniProt P0DN86 21-165, looked up) Choriogonadotropin subunit …: SKEPLRPRCRPINATLAVEKEGCPVCITVNTTICAGYCPTMTRVLQGVLPALPQVVCNYRDVRFESIRLPGCPRGVNPVVSYAVALSCQCALCRRSTTDCGGPKDHPLTCDDPRFQDSSSSKAPPPSLPSPSRLPGPSDTPILPQ | active | directly promoted |  |  | 
recombinant β-hCG: purified recombinant β-chain of hCG (protein, UniProt P0DN86 21-165, looked up) Choriogonadotropin subunit …: SKEPLRPRCRPINATLAVEKEGCPVCITVNTTICAGYCPTMTRVLQGVLPALPQVVCNYRDVRFESIRLPGCPRGVNPVVSYAVALSCQCALCRRSTTDCGGPKDHPLTCDDPRFQDSSSSKAPPPSLPSPSRLPGPSDTPILPQ | not to be active |  | no anti-KS effect |  | 
β-hCG: β-subunit of hCG as reported in the literature (protein, UniProt P0DN86 21-165, looked up) Choriogonadotropin subunit …: SKEPLRPRCRPINATLAVEKEGCPVCITVNTTICAGYCPTMTRVLQGVLPALPQVVCNYRDVRFESIRLPGCPRGVNPVVSYAVALSCQCALCRRSTTDCGGPKDHPLTCDDPRFQDSSSSKAPPPSLPSPSRLPGPSDTPILPQ |  |  |  | efficacious | ≤ 10 µg/mL
